What was measured:
[1] = target: sperm immobilization factor (SIF) from Staphylococcus aureus (Staphylococcus aureus)
[2] = target: SIF-binding receptor from Proteus mirabilis (PM-SBR) (Proteus mirabilis); assay: ITC; SIF (500 μg/ml) in the syringe, 10 μl injections into PM-SBR (200 μg/ml) in the vial, PBS as reference, 37°C, stirring 200 rpm, 800 s between injections; micro reaction calorimeter

Substance	motility of mouse spermatozoa exposed for 20 seconds to SIF (70 μg) pre-incubated with PM-SBR (10-200 μg): amount of PM-SBR that alleviated the immobilization [1]	viability of mouse spermatozoa (eosin staining) with SIF (150 μg) pre-incubated with PM-SBR (50-300 μg): minimum effective concentration (MEC) of PM-SBR reducing sperm mortality caused by SIF [1]	Ka [2]	dH [2]
SIF-binding receptor from Proteus mirabilis (PM-SBR) (natural protein)	130 µg	270 µg	–	–
sperm immobilization factor (SIF) from Staphylococcus aureus (natural protein)	–	–	1220 M⁻¹	2.29 kcal/mol

— publication PMC10703199
